From PMC3410980 (Bioconjugate chemistry, 2012)
Non-standard residues stand in square brackets, D forms with d. Residues, ends and D or L forms follow the SMILES beside them. *: point of attachment. DOTA = O=C(O)CN1CCN(CC(=O)O)CCN(CC(=O)*)CCN(CC(=O)O)CC1; Nspe = C[C@H](NCC(=O)O)c1ccccc1; Nphe = O=C(O)CNCc1ccccc1; Nlys = NCCCCNCC(=O)O

Key:
[1] = hydrophobicity by reverse phase analytical HPLC; assay type: physicochemical; conditions: retention time in reverse phase HPLC column (C18, 55 °C)
[2] = tail vein injection, 0.25-24 h
in vivo = conditions: Balb/c, mouse, total radioactivity

NCCCCN(CC(=O)N(CC(=O)N(CC(=O)N(CCCCN)CC(=O)N(CC(=O)N(CC(=O)N(CCCCN)CC(=O)N(CC(=O)N(CC(=O)N(CCCCN)CC(=O)N(CC(=O)N(CC(N)=O)Cc1ccccc1)Cc1ccccc1)Cc1ccccc1)Cc1ccccc1)Cc1ccccc1)Cc1ccccc1)Cc1ccccc1)Cc1ccccc1)C(=O)CN1CCN(CC(=O)O)CCN(CC(=O)O)CCN(CC(=O)O)CC1 [Compound 2] ({DOTA}-[Nlys][Nphe][Nphe][Nlys][Nphe][Nphe][Nlys][Nphe][Nphe][Nlys][Nphe][Nphe]-NH2)
hydrophobicity (tR in minutes) [1]: 24.1 min

C[C@@H](c1ccccc1)N(CC(N)=O)C(=O)CN(CCCCN)C(=O)CN(C(=O)CN(C(=O)CN(CCCCN)C(=O)CN(C(=O)CN(C(=O)CN(CCCCN)C(=O)CN(C(=O)CN(C(=O)CN(CCCCN)C(=O)CN1CCN(CC(=O)O)CCN(CC(=O)O)CCN(CC(=O)O)CC1)[C@@H](C)c1ccccc1)[C@@H](C)c1ccccc1)[C@@H](C)c1ccccc1)[C@@H](C)c1ccccc1)[C@@H](C)c1ccccc1)[C@@H](C)c1ccccc1 [Compound 3] ({DOTA}-[Nlys][Nspe][Nspe][Nlys][Nspe][Nspe][Nlys][Nspe][Nspe][Nlys][Nspe]-NH2)
hydrophobicity (tR in minutes) [1]: 23.9 min

C[C@@H](c1ccccc1)N(CC(N)=O)C(=O)CN(C(=O)CN(CCCCN)C(=O)CN(C(=O)CN(C(=O)CN(CCCCN)C(=O)CN(C(=O)CN(C(=O)CN(CCCCN)C(=O)CN(C(=O)CN(C(=O)CN(CCCCN)C(=O)CN1CCN(CC(=O)O)CCN(CC(=O)O)CCN(CC(=O)O)CC1)[C@@H](C)c1ccccc1)[C@@H](C)c1ccccc1)[C@@H](C)c1ccccc1)[C@@H](C)c1ccccc1)[C@@H](C)c1ccccc1)[C@@H](C)c1ccccc1)[C@@H](C)c1ccccc1 [^64Cu-1, metal not drawn] ({DOTA}-[Nlys][Nspe][Nspe][Nlys][Nspe][Nspe][Nlys][Nspe][Nspe][Nlys][Nspe][Nspe]-NH2)
excretion route, kidney activity and clearance seen by PET [2]: main excretion route is likely hepatic | tissue uptake at 2 h (in vivo; kidney, iv): 14.4 ± 0.9 %ID/g | tissue uptake at 2 h (in vivo; liver, iv): 138 ± 13.4 %ID/g | tissue uptake at 24 h (in vivo; liver, iv): 95.6 ± 10.5 %ID/g | tissue uptake at 2 h (in vivo; stomach, po): 4.82 ± 1.44 %ID/g | tissue uptake at 24 h (in vivo; stomach, po): 0.54 ± 0.22 %ID/g

NCCCCN(CC(=O)N(CC(=O)N(CC(=O)N(CCCCN)CC(=O)N(CC(=O)N(CC(=O)N(CCCCN)CC(=O)N(CC(=O)N(CC(=O)N(CCCCN)CC(=O)N(CC(=O)N(CC(N)=O)Cc1ccccc1)Cc1ccccc1)Cc1ccccc1)Cc1ccccc1)Cc1ccccc1)Cc1ccccc1)Cc1ccccc1)Cc1ccccc1)C(=O)CN1CCN(CC(=O)O)CCN(CC(=O)O)CCN(CC(=O)O)CC1 [^64Cu-2, metal not drawn] ({DOTA}-[Nlys][Nphe][Nphe][Nlys][Nphe][Nphe][Nlys][Nphe][Nphe][Nlys][Nphe][Nphe]-NH2)
excretion route, kidney activity and clearance seen by PET [2]: main excretion route is likely hepatic | tissue uptake at 2 h (in vivo; kidney, iv): 12.6 ± 2.3 %ID/g | tissue uptake at 2 h (in vivo; liver, iv): 125 ± 16.8 %ID/g | tissue uptake at 24 h (in vivo; liver, iv): 72.2 ± 11.3 %ID/g

C[C@@H](c1ccccc1)N(CC(N)=O)C(=O)CN(CCCCN)C(=O)CN(C(=O)CN(C(=O)CN(CCCCN)C(=O)CN(C(=O)CN(C(=O)CN(CCCCN)C(=O)CN(C(=O)CN(C(=O)CN(CCCCN)C(=O)CN1CCN(CC(=O)O)CCN(CC(=O)O)CCN(CC(=O)O)CC1)[C@@H](C)c1ccccc1)[C@@H](C)c1ccccc1)[C@@H](C)c1ccccc1)[C@@H](C)c1ccccc1)[C@@H](C)c1ccccc1)[C@@H](C)c1ccccc1 [^64Cu-3, metal not drawn] ({DOTA}-[Nlys][Nspe][Nspe][Nlys][Nspe][Nspe][Nlys][Nspe][Nspe][Nlys][Nspe]-NH2)
oral absorption / bioavailability (administered orally): poor bioavailability | lower liver uptake relative to ^64Cu-1 (intravenous): more than 50% | excretion route, kidney activity and clearance seen by PET [2]: highest kidney activity of all three peptoids | tissue uptake at 2 h (in vivo; kidney, iv): ~31.2 %ID/g | tissue uptake at 24 h (in vivo; kidney, iv): 19.3 ± 2.6 %ID/g | tissue uptake at 2 h (in vivo; liver, iv): 56.7 ± 1.8 %ID/g | tissue uptake at 24 h (in vivo; liver, iv): 47.3 ± 4.4 %ID/g
